{
  "source": "the nanobody polyreactivity screen of Harvey et al. (2022)",
  "data": [
    {"assay": "yeast display, Sf9 membrane polyspecificity reagent, FACS + sequencing; frameworks hold sequencing errors", "procedure,_shortened": "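Synthetic nanobody libraries on Saccharomyces cerevisiae BJ5465 were galactose-induced for 36–48 hours, stained 1 hour at 4 °C with 10% biotinylated, detergent-solubilized Sf9 membrane reagent and enriched on streptavidin microbeads. FACS then separated cells into low and high (top ~1%) gates by anti-HA (expression) and streptavidin (reagent binding) fluorescence. Genes were colony-PCR amplified, MiSeq 2 × 250 sequenced and CDR-length filtered. A clone's polyreactivity label is that of its gate of origin.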", "values": [
      {"sequence": "QVQLVESGGGLVQAGGSLRLSCAASGSIFSSNAMGWYRQAPGKERELVAAITSGGSTTYADSVKGRFPISRDNAKNTVYFQMNSLKPEDTAVYYCAADPVYRYYHGWTYLDYDYWGQGTQVTVSS", "polyreactivity (PSR sort gate)": "low polyreactivity"},
      {"sequence": "QVQLVESGGGLVQAGGSLRLSCAASGSIFSSNTMGWYRPAPGKERELVAAITSGGGTYYADSVKGRFTISRDNAKNTVSLQMNSLKPEDTAVYYCAAQRVYKSSPSYDYWGQGTLVTVSS", "polyreactivity (PSR sort gate)": "low polyreactivity"},
      {"sequence": "QVQLVESGGGLVQAGGSLRLSCAASGSIFSSYAMGWDRQAPGKERELVAAISSGGGSTYYADSVKGRFTISRDNAKHTVYLQMNSLKPEDTAVYYCNAGKEALKTTYTYDYWGQGTQVTVSS", "polyreactivity (PSR sort gate)": "high polyreactivity"},
      {"sequence": "QVQLVESGGGLVQAGGSLRLSCAASGSIFSSYAMGWYRQAPGKDRELVAAITRSGGSTYYADSVKGRFTISRDNAKNTVYVQMNSLKPEDTAVYYCNARGKGHYYWGQGTQVTVSS", "polyreactivity (PSR sort gate)": "high polyreactivity"},
      {"sequence": "QVQLVESGGGLVQAGGSLRLSCAASGSIFSSYAMGWYRQAPGKERELVAAIDGSGGSTYADSVKGRFTISRDNAKITVYLQMNRLKPEDTAVYYCAVDSFLVYSAVRPYDYWGLGTQVTVSS", "polyreactivity (PSR sort gate)": "low polyreactivity"},
      {"sequence": "QVQLVESGGGLVQAGGSLRLSCAASGSIFSSYAMGWYRQAPGKERELVAAISQSGGDTYYADSVKGRFTISRDNAKNTVYLQMNSLKPEDTAVYYCAASFWYYPMDYWGQGTQVTVSS", "polyreactivity (PSR sort gate)": "low polyreactivity"},
      {"sequence": "QVQLVESGGGLVQAGGSLRLSCAASGSIFSSYAMGWYRQAPGKERELVAAITTRGDSTRYADSVKGRFTISRDNAKNTVYLQMNSLKPEDTAVYYCAARRRGASKYGYWGQGTQVTVSS", "polyreactivity (PSR sort gate)": "high polyreactivity"},
      {"sequence": "QVQLVESGGGLVQAGGSLRLSCAASGSIFSSYAMGWYRQAPGKERELVAVITSGDSTNYADSVKGRFTISRDNAKNTVYLQMNSLKPEDTAVYYCAAGTQAHAYVVRPIEMDYWGQGTQVTVSS", "polyreactivity (PSR sort gate)": "low polyreactivity"},
      {"sequence": "QVQLVESGGGLVQAGGSLRLSCAASGSIFSTNAMGWYRQAPRKERELVAAITYSGSRTYYADSVKGRFTISRDNAKNTVYLQMNSLKPEDTAVYYCAADTSWYSWWFDYWGQGTQVTVSS", "polyreactivity (PSR sort gate)": "low polyreactivity"},
      {"sequence": "QVQLVESGGGLVQAGGSLRLSCAASGSIFSTNGMGWYRQAPGKERELVAAISTGGRTYYADSVKGRFTISRDNAKNTVYLQMNSLKPEETAVYYCAKDHWTTTYDEGDYWGQGTEVTVSS", "polyreactivity (PSR sort gate)": "low polyreactivity"},
      {"sequence": "QVQLVESGGGLVQAGGSLRLSCAASGSIFSTYAMGWYRQAPGKERELVAAISGSGGRTYYADSVKGRFTISRDNAKNTVYLQMNSLKPEDTAVYDCASRVFRGLGEYYWGQGTQVTVSS", "polyreactivity (PSR sort gate)": "high polyreactivity"},
      {"sequence": "QVQLVESGGGLVQAGGSLRLSCAASGSIFSTYAMGWYRQAPGKERELVAAISGSGGSTYYADSVKGRFTISRDNAKNTVYLQMNSLKPEDTAVYYCNRLPYVSSAYVGLGYWGQGTQVTVSS", "polyreactivity (PSR sort gate)": "high polyreactivity"},
      {"sequence": "QVQLVESGGGLVQAGGSLRLSCAASGSIFSTYAMGWYRQAPGKERELVAAISVSGSSTYYADSVKGRFTISRDNAKNTVYLQMNSLKPEDTAVYYCNKAFRSVRPRRRYDYWGQGTQVTVSS", "polyreactivity (PSR sort gate)": "low polyreactivity"},
      {"sequence": "QVQLVESGGGLVQAGGSLRLSCAASGSIFSTYAMGWYRQAPGKERELVAAITSDGTYADSVKGRFTISRDNAKNTVYLQLNSLKPEDTAVYYCNKDIKSATDSYHYEDDYWGQGTQVTVSS", "polyreactivity (PSR sort gate)": "low polyreactivity"},
      {"sequence": "QVQLVESGGGLVQAGGSLRLSCAASGSIFSTYAMGWYRQAPGKERELVATINYSGGSTYYADSVKGRFTISRDNAKNTVYLQMNSLKPEDTAVYYCNTGPFVGFDYWGQGTQVTVSS", "polyreactivity (PSR sort gate)": "low polyreactivity"},
      {"sequence": "QVQLVESGGGLVQAGGSLRLSCAASGSIFSVNAMGWYRQAPGKERELVATIRWSGSSTYYADSVKGRFTISRDNAKNSVYLQMKSLKPEDTAVYYCAADSTEIPWCGMDYWGQGTQVTLSS", "polyreactivity (PSR sort gate)": "low polyreactivity"},
      {"sequence": "QVQLVESGGGLVQAGGSLRLSCAASGSIFSVNAMGWYRQAPGKETELVAGITISGGRTYYADSVKGRFTISRDNAKNTVYLQLNSLKPEDNAVYYCAADWVYPPGLKDSVHFGEYDYWGEGTQVTVSS", "polyreactivity (PSR sort gate)": "low polyreactivity"},
      {"sequence": "QVQLVESGGGLVQAGGSLRLSCAASGSIFSVYAMGWYRQAPGKERELVAAINWDGTSTDYADSVKGRFTISRDNAKNTVYLQMNSLKPEDTAVYYCAAEGHTAFLVYRVSPLQYDYWGQGTQVTVSS", "polyreactivity (PSR sort gate)": "low polyreactivity"},
      {"sequence": "QVQLVESGGGLVQAGGSLRLSCAASGSIFSVYAMGWYRQAPGKERELVAAISRSGGSTYYADSVKGRFTISRDNAKNTVYLQMNSLKPEDTAVYYCAARLAGRGSSSSRVVRTGGYWGQGTQVTVSS", "polyreactivity (PSR sort gate)": "high polyreactivity"},
      {"sequence": "QVQLVESGGGLVQAGGSLRLSCAASGSIFSVYAMGWYRQAPGKERELVAVIWRGGSTNYADSVKGRFTISRDNAKNTVYLQMNSLKPEVTALYYCNARTFYRKFWYQFVSSYGYDYWGQGTQVTVSS", "polyreactivity (PSR sort gate)": "low polyreactivity"},
      {"sequence": "QVQLVESGGGLVQAGGSLRLSCAASGSIFSVYVMGWYRQAPGKESELVAAISWSDRDTYYADSVKGRFTISRDYAKNTVDFQMNSLKPVDTAVYYGAAETFDYDVYIANGSGEYDYWGQVTQVTVSS", "polyreactivity (PSR sort gate)": "high polyreactivity"},
      {"sequence": "QVQLVESGGGLVQAGGSLRLSCAASGSIFSWYAMGWYRQAPGKERELVAAIDSGSKYYADSVKGRFTISRDNAKNTVYLQMNSLKPEDTAVYYCAVDYGYYYWEPWPSDYDMYSWGQGTQVTVSS", "polyreactivity (PSR sort gate)": "high polyreactivity"},
      {"sequence": "QVQLVESGGGLVQAGGSLRLSCAASGSIFSWYAMGWYRQAPGKERELVAAISWSSGSTYYADSVKGRFTISRDNAKNTVYLQMNSLKPEDTAVYYCAADATYLGWYELYYWGQGTQVTVSS", "polyreactivity (PSR sort gate)": "high polyreactivity"},
      {"sequence": "QVQLVESGGGLVQAGGSLRLSCAASGSIFSYNAMGGYRPAPGKARELVAAITLSDGGTYYADSVKGRFTISRDNAKNTVYLQMNSLKPEDTAVYYCATTYWLWITYSAYYYWGQGSQVTVSS", "polyreactivity (PSR sort gate)": "low polyreactivity"},
      {"sequence": "QVQLVESGGGLVQAGGSLRLSCAASGSIFSYNAMGWYRKAPGKERELVAAIRASGGDTYYADSVKGRFTISRDNAKNTVYLQMNSLKPEDTAVYYCAARTYAHHYASHGYWGQGTQVTVSS", "polyreactivity (PSR sort gate)": "low polyreactivity"},
      {"sequence": "QVQLVESGGGLVQAGGSLRLSCAASGSIFSYNAMGWYRQAPGKERELVAAITSGDSTNYADSVKGRFTISRDNAKNTVYLQMNSLKPEDTAVYYCAADPVLPAFGYVGTSLGDYWGQGTQVTVSS", "polyreactivity (PSR sort gate)": "low polyreactivity"},
      {"sequence": "QVQLVESGGGLVQAGGSLRLSCAASGSIFSYTMGWYRQAPGKERELVAAITSGGITYYADSVKGRFTISRDNAKNTVYLQMNSLKPEDTAVYYCNKDVGFTRPLYYWGQGTQVTVSS", "polyreactivity (PSR sort gate)": "low polyreactivity"},
      {"sequence": "QVQLVESGGGLVQAGGSLRLSCAASGSIFSYYAMGWSRQAPGKERELVAAISWGDDSTYYADSVKGRFTISRDNAKNTVYLQMNSLKPEDTAVYYCAADRVGWYRTFDYWGQGTQVTVSS", "polyreactivity (PSR sort gate)": "low polyreactivity"},
      {"sequence": "QVQLVESGGGLVQAGGSLRLSCAASGSIFSYYAMGWSRQEHGKERELVAAITRSGSTNYADSVKGRFTISRDNAKNTVYLQMNSLKPEDTAVYYCARRHYSSRVIYVSSKGGYWGQGTQVTVSS", "polyreactivity (PSR sort gate)": "high polyreactivity"},
      {"sequence": "QVQLVESGGGLVQAGGSLRLSCAASGSIFSYYAMGWYRPAPGKERELVAAISWSGGSTYYADSVKGRFTISRDNAKNTVSLQMNSLIPADTAVYYCAAGVTYEKQTKYYYWGQGTQVTVSS", "polyreactivity (PSR sort gate)": "high polyreactivity"},
      {"sequence": "QVQLVESGGGLVQAGGSLRLSCAASGSIFSYYAMGWYRQAPGKERELVAAISGDSGRTYYADSVKGRFTISRDNAKNTVYLQMNSLKPEDTAVYYCNARVAYRYRTGYDYWGQGTQVTVSS", "polyreactivity (PSR sort gate)": "high polyreactivity"},
      {"sequence": "QVQLVESGGGLVQAGGSLRLSCAASGSIFSYYAMGWYRQAPGKERELVAAISSGVSSTYYADSVKGRFTISRDNAKNTVYLQMNSLKPEYTAVYYCNADRPYRLNEYWGQGTQVTVSS", "polyreactivity (PSR sort gate)": "high polyreactivity"},
      {"sequence": "QVQLVESGGGLVQAGGSLRLSCAASGSIFSYYAMGWYRQAPGKERELVAAISWTGGSTYYADSVKGRFTISRDNAKNTVYLQMNSLKPEDTAVYYCAADSPRSDRDSYDYWGQGTQVTVSS", "polyreactivity (PSR sort gate)": "high polyreactivity"},
      {"sequence": "QVQLVESGGGLVQAGGSLRLSCAASGSIFSYYAMGWYRQAPGKERELVAAITIRGGRTYYADSVKGRFTISRDNAKNSVYLQMNSLKPEDTAVYYCAAETGHKQHGYTYEVSRRCYGYWGQGTQVTVSS", "polyreactivity (PSR sort gate)": "low polyreactivity"},
      {"sequence": "QVQLVESGGGLVQAGGSLRLSCAASGSIFSYYAMGWYRQAPGKERELVAAITISGSSTYYADSVKGRFTISRDNAKNTVYLQMNSLKPEDTAVYYCNVVPLGSKNSVSHYYWGQGTQVTVSS", "polyreactivity (PSR sort gate)": "high polyreactivity"},
      {"sequence": "QVQLVESGGGLVQAGGSLRLSCAASGSIFSYYAMGWYRQAPGKERELVAAITTNTGNTYYADSVKGRFTISRDNAKNTVYLQMNSLKPEDSAVYYCAKSGVADFYYTYYYWGQGTQVNVSS", "polyreactivity (PSR sort gate)": "low polyreactivity"},
      {"sequence": "QVQLVESGGGLVQAGGSLRLSCAASGSIFSYYAMGWYRQAPGKERELVAAITTSGGSTYYADSVKGRFTISRDNAKNTVYLQMNSLKPEDTAVYYCNAGPYWWYYGEDYWGQGSQVTVSS", "polyreactivity (PSR sort gate)": "low polyreactivity"},
      {"sequence": "QVQLVESGGGLVQAGGSLRLSCAASGSIFSYYAMGWYRQAPGKERELVADITANDGSTYYADSVKGRFTISRDNAKNTVYLQMHSLKPEVTAVYYCAAASDLYGSIWIETGVTSDYWGQGTQVTVSS", "polyreactivity (PSR sort gate)": "high polyreactivity"},
      {"sequence": "QVQLVESGGGLVQAGGSLRLSCAASGSIFSYYAMGWYRQAPGKERELVADITVRGGSTYYADSVKGRFTISRDNAKNTVYLQMNSLIPEDTAVYYCAADWLDESFSYGPYYYWGQGTQVTVSS", "polyreactivity (PSR sort gate)": "low polyreactivity"},
      {"sequence": "QVQLVESGGGLVQAGGSLRLSCAASGSIFSYYTMGWYRQAPGKERELVAAISFRGTSTYYADSVKGRFTISRDNAKNTVYLQMNSLKPEDTAVYYCAKRALYYPTYPKYDTYNRYYWGQGTQVTVSS", "polyreactivity (PSR sort gate)": "high polyreactivity"},
      {"sequence": "QVQLVESGGGLVQAGGSLRLSCAASGSIFTAYALGWYRQAPGKERELVAAIDDSGDSTYYADSVKGRFTISRDNAKNTVYLQMHSLKPEDTAVNYCKAEYRVNKEYDYWGQGTQVTVSS", "polyreactivity (PSR sort gate)": "low polyreactivity"},
      {"sequence": "QVQLVESGGGLVQAGGSLRLSCAASGSIFTAYAMGWYRPAPGKERELVAAITSGGSTNYADSVKGRFTISRDNAKNTVYLQMNSLKPEDTAVYYCNADDYWLDSWSSVLWYDYWGQGTQVTVSS", "polyreactivity (PSR sort gate)": "low polyreactivity"},
      {"sequence": "QVQLVESGGGLVQAGGSLRLSCAASGSIFTEYAMGWYRQAPGKERELVAAISWSGATTYYADSVKGRFTISRDNAKNTVYLQMNSLKPEDTAVYYCAARWANRSYEYWGQGTQVSVSS", "polyreactivity (PSR sort gate)": "low polyreactivity"}
    ]}
  ]
}
